Drawing on publication doi:10.1101/2025.08.01.668162, this text covers percent reduction of co-precipitated HRD1 against WT SEL1L for one substance.

Read-outs that look alike come from different tables or passages of the source.

The target of assay [1] is SEL1L S658P (mouse knock-in) (mouse (endogenous in MEFs and liver)) (UniProt Q9Z2G6). Nature of the assay: co-IP.
Assay [2] has the same target. Nature of the assay: co-IP. This is another data set of the same source.

UniProt Q9Z2G6, sequence (Q9Z2G6 22-790, stated change not applied): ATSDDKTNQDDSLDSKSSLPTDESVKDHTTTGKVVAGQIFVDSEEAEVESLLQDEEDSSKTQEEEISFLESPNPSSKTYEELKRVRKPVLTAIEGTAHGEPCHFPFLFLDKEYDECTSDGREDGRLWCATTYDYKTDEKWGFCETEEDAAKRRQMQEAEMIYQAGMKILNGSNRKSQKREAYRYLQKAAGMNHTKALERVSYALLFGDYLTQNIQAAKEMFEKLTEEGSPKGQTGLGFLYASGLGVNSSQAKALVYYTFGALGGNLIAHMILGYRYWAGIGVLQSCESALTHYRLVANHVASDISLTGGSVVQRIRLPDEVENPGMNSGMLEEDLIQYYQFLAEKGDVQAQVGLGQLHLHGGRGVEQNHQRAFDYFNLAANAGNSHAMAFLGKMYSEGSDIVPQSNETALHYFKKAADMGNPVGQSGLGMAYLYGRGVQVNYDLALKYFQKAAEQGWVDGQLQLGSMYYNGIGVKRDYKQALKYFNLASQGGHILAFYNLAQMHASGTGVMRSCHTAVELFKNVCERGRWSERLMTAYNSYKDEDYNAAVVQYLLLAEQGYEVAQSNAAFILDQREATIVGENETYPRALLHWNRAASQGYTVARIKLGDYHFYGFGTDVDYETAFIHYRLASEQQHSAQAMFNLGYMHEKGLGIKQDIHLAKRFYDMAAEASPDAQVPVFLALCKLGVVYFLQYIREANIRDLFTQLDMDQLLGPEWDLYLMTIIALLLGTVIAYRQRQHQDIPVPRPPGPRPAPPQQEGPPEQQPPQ

For the substance “HRD1 (mouse) (from UniProt Q9DBY1 1-612) (natural protein)”, the percent reduction of co-precipitated HRD1 against WT SEL1L in assay [1] was 60%; in assay [2], 80%.
